According to US12286661B2, “Methods for making high intensity sweeteners” (Firmenich Incorporated, priority 2018, dated 2025):

B1: SEQ ID NO. 1044/1045: CYP450 enzyme (DNA/protein SEQ ID NO) producing 11-OH cucurbitadienol (protein, listed as Siraitia grosvenorii)
chain: MDELKWFVLIPATFFLVVFVFEVLKRLNGWYYATKLWKIWDELPPGDMGWPLLGSTLSYINDFTAGQPQNFIRTFSNRYGKADMYKTHILGRASIIICTPEICRQVLTNEDKFKPSLPGNMKILSGRKSLMQVSKAEHRRLRRLTMAPISGHAALEMYISHIQATVVGGLEEWASIQRPVELVTEIKRLTFKVIWNIFMGSTSLDSSMGAMEALFSDVAVGFLSLPINFPGFYFHKSLKARKRLIEILQSIINEKRLVKKSKGESWEAKDMMDLMIEVKDEDGEELDDETIIDLIFGKLFAGHETSAFTAMWAVLFLTDHPQIFQKAKEEQEEIIRRRPSTQKGINLSDYKQMKFLSQVIDETLRVSCITSLLFREATADVEINGKIIPKGWRVLPWLGMLYMDENLFPSPQEFNPSRWDNFVPKPGAFIPFGVGNRFCPGSDLAKLEISIFLHYFLLNYKVERLNPKCHLTCLPFPHPTDKCLARVHKVA
B2: SEQ ID NO. 1046/1047: CYP450 enzyme (DNA/protein SEQ ID NO) producing 11-OH cucurbitadienol (protein, listed as Siraitia grosvenorii)
chain: MELWLWLLGASVGAYVFVFGILRNLNQWRFVTRHRNRYNLPPGDMGWPLIGTLLPFLQAFRSGRPDSFIHYFASTYGKIGMYKTYLFGSPSVIVCLPEVCRHVLMNDEQFVFGYSKATRILTGSKALNTVPKAEHRRLRRLIASLISGNDALSVYIGHVEGIVINCLQEWGSMKKPVEFLSEMKTVAFKVLLHIFIGSTSAAFIDKMEKLYTDFHLGFMSTPIDLPGTTFSRALKARNELIRIFENVLKEKRANLKSKEGENRKKDMTDLLLEVRDEDGQGLDDGCIIDLLIGFFFAGHETSAHSIMRAIMFLSENPETLLKAKAEQEQIVKARPADDQHKGLTMKEIKQMEYLSKVIDETLRKTSLAFTLSRETKVDVNLNGYTIPKGWKILVWTRAVHMDPEIYESPQKFDPSRWDNSKRRAGSFIPFGAGMRLCPGIDLSKLEIAIFLHYFIYGGFRLERVNPNCPENYLPLARPTDNCLARVVRDS
B3: SEQ ID NO. 1042/1043: CYP450 enzyme (DNA/protein SEQ ID NO) producing 11-OH cucurbitadienol (protein, listed as Siraitia grosvenorii)
chain: MAIFFFFFFFLLVVSVVFVFLFLRASRFRRVRLPPGSLGLPLIGETLQLISAYKTENPEPFIDERVRRFGAVFTTHLFGEPTVFSADWETNRFILQNEEKLFECSYPGSISNLLGKHSLLLMKGNLHKRMHSLTMSFANSSIIRDHLLLDVDRLIRLNLDSWTGRIFLMEEAKKITFELAVKQLMSFDRCEWTQNLMKEYLLVIEGFFTVPLPLLSTTYRRAIRARTKVAEALGLVVRQRRKESDAGKRKNDMLGALLAAEDALSDDQIVDFLLALLVAGYETTSTTMTLAVKFLTEAPLALTQLQEEHEQIKARKKEADQHLQWNDYKSMPFTQCVVNETLRVANIISGVFRRAMTDINIKGYTIPKGWKVFASFRAVHLDHDHFKDARSFNPWRWQQNTSGSTVNAFTPFGGGPRLCPGYELARVELSVFLHHFVTQFSWVPAEDDKLVFFPTTRTQKRYPINVMRKNETRQRKDSLDSRHMKGQESSFDM
B4: SEQ ID NO. 1038/1039: CYP450 enzyme (DNA/protein SEQ ID NO) producing 11-OH cucurbitadienol (protein, listed as Siraitia grosvenorii)
chain: MLSFLGFAAFFFCFFLIHSLFKLFSAARRKLPLPPGSMGWPYMGETLQLYSQDPNVFFASKKKRYGPIFKSHILGYPCVMLSSPEAVKFVLVTKAHLFKPTFPASKERMLGKNAIFFHQGDYHAKLRRLVLRTFMPEAIRIMVPSIESIAKNTVQSWEGQLINTFQEMKMFAFEVSLLSIFGKDEALYFEDLKRCYYILEKGYNSMPINLPGTLFHKAMKARKELAHILNKILSTRREMKPDHNDLLGSFMGQKEGLTDEQIADNVIGLIFAARDTTASVLTWILKYLGENPSVLQAVTAEQEAIMKQKRSAHDNLTWGDTKNMPITSRVIQETLRVASVLSFTFREAVEDVEFDGYLIPKGWKVLPLFRNIHHSPEIFPQPDKFDPSRFEVAQKPNTYMPFGSGTHSCPGNELAKLEMLVLLHHLTTKYRWSVVGAQEGIQYGPFALPHNGLPIRISLKK
B5: SEQ ID NO. 1034/1035: CYP450 enzyme (DNA/protein SEQ ID NO) producing 11-OH cucurbitadienol (protein)
chain: MEIINGVFLILPLGFVLVFEVLKRLNGLYYAVKLGKKWGELPPGDLSWPLLGSTLSFLKSFTVGPPESFIRIFTTRYGKVDMYKTHMFGRASILVCKPEICRQVLIDETKFVPSYPACMKRLFGRKSLIRVSKAEHRKLRRMTMAPISSHAALEIYIEHTEHTVISGLEEWSSVEKPLKLLTEIKELTFKIIWNIFMGSTSIDYTTKEMEALYDDVALGLFCFPINFPGFNFHKSLKARKRLYEILLSIVNEKRLMKKSKGESWEAKDMMDLMTEVEDEDGEGMDNETITDLIFGKLFAGHETSAFTTMWAIIFLTDHPHIFQRAKEEQEDIIRRRPSTQKGINLVEFKQMKFLSQVIDETLRLSSIAFATFREATTDININGKLIPKGWKVILWHRGLYMDEELHPSPQDFNPSRWDDFIGNPGAFTPFGLGVRLCPGRDLAKLEISIFLHHFLLNYKIERYNPQCQLTYLPLPHPKDKCLARVLKAAGQCV
modifications: Cucurbita pepo
B6: SEQ ID NO. 1032/1033: CYP450 enzyme (DNA/protein SEQ ID NO) producing 11-OH cucurbitadienol (protein, listed as Cucurbita maxima)
chain: MWTIVVGLATLAVAYYIHWINKWKDSKFNGVLPPGTMGLPLIGETLQLSRPSDSLDVHPFIKKKVKRYGSIFKTCLAGRPVVVSTDAEFNNYIMLQEGRAVEMWYLDTLSKFFGLDTEWLKALGFIHKYIRSITLNHFGAESLRERFLPRIEESAKETLCYWATQPSVEVKDSAAVMVFRTSMVKMVSKDSSKLLTGGLTKKFTGLLGGFLTLPINVPGTTYNKCMKDMKEIQKKLREILEGRLASGAGSDEDFLGQAVKDKGSQKFISDDFIIQLLFSISFASFESISTTLTLILNYLADHPDVVKELEAEHEAIRNARADPDGPITWEEYKSMTFTLHVIFETLRLGSVTPALLRKTTKELQINGYTIPEGWTVMLVTASRHRDPAVYKDPHTFNPWRWKELDSITIQKNFMPFGGGLRHCAGAEYSKVYLCTFLHILFTKYRWTKLKGGKVARAHILSFEDGLHMKFTPKE
B7: SEQ ID NO. 1036/1037: CYP450 enzyme (DNA/protein SEQ ID NO) producing 11-OH cucurbitadienol (protein, listed as Lagenaria siceraria)
chain: MELIINNWLLILSCVGFALGLGVLKRLNNLYYAIKLGKKWDEVPPGDLSWPLLGSTLSFIKYFTLGPPHNFIAQFSNRYGKVDMYKTHIFGRASIIVCKPEICRQVLTDETKFAPGYPTTMTSLFGRRSLHRVSKVEHRKLRRLTTTPISSHAALELYIDHIEHTVINGLEEWSSMEKPLELLTVIKELTFKIIWNIFMGSTPMGSIAIREMEALYNDISLGFFCLPINFPGFYFHKSLKARKRLHEILQCIVNEKRLVKKSKGETWEAKDMMDLMIEVRDEDGEGMDDETIVDLIFGKLFAGQETSAFTTMWAILFLTNNPHVFQKAKVIDETLRVSSITFATFREAMTDVKINGKIIPKGWKVILWLRELNMDEKLHTSPQEFNPSRWDNFIGNPGAFTPFGLGVRMCPGRDLAKLEISIFLHYFLLNYKVEQLNPQCQLDYLPIPHPKDKCLARVLKVA
B8: SEQ ID NO. 1040/1041: CYP450 enzyme (DNA/protein SEQ ID NO) producing 11-OH cucurbitadienol (protein, listed as Siraitia grosvenorii)
chain: MEVELTNFWVMILAAVLGFCVFVFGFLRRFNDLWTMVKLGKKVYKTLPPGDMGWPLIGSSLWFYKAFSASGDPDSFIKHLRSRYGRVGMYKTHLFGKPAVIVTDPEICRRVYSDDKHFVMSYPKSVKILGTGSLSRIDHRITHRFMAAPINGSEALARYVGFIEQVVVRGLEEWSSMRKPIELLHEIKRLTFRIIIHVFMGSALDPHIPKLEKLYAELSAAVFVAFAIDVPGSTYHRALKAKEEIQNILRPVIEEKRRIIEKNEEMEDKCQLDAVIKGKNGKGEKIFDNDAIIDMLLGLLYAGHHTSAHGTMWALIQLLEHPQVYEKAKEEQELIMKQRPSTQKGLIFNEIKQMTYLVKVINEMLRRVSIVFANFREAATDVNINGYTIPKGWVVPVWIKGVHMDPQIYPNPEEFNPSRWDTHTPKPGAFIPFGFGNRFCPGNELAKLEITILLHHFLLKYRWERVNPKASITSVPMPSPIDQCLAKITAIPSS

What follows are molecules tested on cucurbitadienol (assay: 11-OH cucurbitadienol production from cucurbitadienol by CYP450s expressed in S. cerevisiae, LCMS). Conditions: S. cerevisiae strain producing cucurbitadienol and expressing SgCPR; LCMS peak area of product vs. internal reference; hits over vector only control.
Assay type: cell-based
Source text: DNA was obtained through gene synthesis either through Genescript, IDT, or Genewiz. For some of the cucurbitadienol synthases, cDNA or genomic DNA was obtained through 10-60 day old seedlings followed by PCR amplification using specific and degenerate primers. DNA was cloned through standard molecular biology techniques or through yeast gap repair cloning (Joska et al., 2014) into one of the following overexpression vectors: pESC-Ura, pESC-His, or pESC-LEU. Gene expression was regulated by one of the following promoters; Gall, Gal10, Tef1, or GDS. Yeast transformation was performed using Zymo Yeast Transformation Kit II. Yeast strains were grown in standard media (YPD or SC) containing the appropriate selection with 2% glucose or 2% galactose for induction of heterologous genes. Yeast strains were grown in shake flask or 96 well plates at 30° ° C., 140-250 rpm. When indicated, lanosterol synthase inhibitor, Ro 48-8071 (Cayman Chemicals) was added (50 ug/ml). Yeast samples producing mogrol precursors, mogrol and mogrosides were processed through one of the following: • Cucurbitadienol and 11-OH Cucurbitadienol: Samples cell pellets were lysed (Yeast Buster) followed by ethyl acetate extraction, drying, and resuspension in methanol. • ·Mogrol and Mogrosides: Samples cell pellets were lysed in 50% ETOH, incubated at 80° C. for 30 min, filtered, dried and resuspended in MeOH for LCMS screening.
For analyzing 11-OH cucurbitadienol, the LCMS method included the use of C8 2.1×100 mm column, gradient 60 to 90% B for 6 minutes at flow rate of 0.55 ml/min. For the enzyme screening, the LCMS method used was a Waters Acquity UPLC Protein BEH C4, 2.1×100 mm, 1.7 μm column and a gradient of 40% to 80% over 5 minutes, 95% B from 5.1 to 5.6 minutes with a flow rate of 0.55 ml/min, and ESI source positive mode single ion monitoring of 425.4.
Additional CYP450s were expressed in S. cerevisiae strain producing cucurbitadienol and expressing SgCPR. DNA and protein sequences for the CYP450 enzymes are shown in SEQ IDs 871-890 and 1024-1049 (see Table 1).

Row | Molecule | Peak Area 11-OH CCB
1 | B1 | 0.2664
2 | B2 | 0.2276
3 | B3 | 0.3326
4 | B4 | 0.3528
5 | B5 | 0.3854
6 | B6 | 0.4459
7 | B7 | 0.3833
8 | B8 | 0.3523
